We go through six sequences from the supplement of paper PMC11316812.

± gives the standard deviation of the averaged measurements.

One data set relates to hTERT-HMEC. In words: percentage of EdU-negative (G0-arrested) nuclei per well, 72 h; higher = more G0 arrest. Particulars: reference: sequence is the full UniProt precursor, the tested protein was the secreted form or ectodomain.
The next data set relates to MCF7. The data set is described as above. The note with it: reference: sequence is the full UniProt precursor, the tested protein was the secreted form or ectodomain.
Where [1] appears, read: protein concentration 0.0225 µM.
[2] abbreviates: protein concentration 0.0085 µM.
The mark [3] stands for this setting: protein concentration 0.02632 µM.
The mark [4] stands for this setting: protein concentration 0.2632 µM.
The mark [5] stands for this setting: protein concentration 0.0205 µM.
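Also: secreted proteins added to cultured cells, EdU pulse at the end, nuclei found by Hoechst imaging, EdU status from nuclear versus surrounding ring intensity ratio, PBS as neutral control.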

Take “MRKFAYCKVVLATSLIWVLLDMFLLLYFSECNKCDEKKERGLPAGDVLEPVQKPHEGPGEMGKPVVIPKEDQEKMKEMFKINQFNLMASEMIALNRSLPDVRLEGCKTKVYPDNLPTTSVVIVFHNEAWSTLLRTVHSVINRSPRHMIEEIVLVDDASERDFLKRPLESYVKKLKVPVHVIRMEQRSGLIRARLKGAAVSKGQVITFLDAHCECTVGWLEPLLARIKHDRRTVVCPIIDVISDDTFEYMAGSDMTYGGFNWKLNFRWYPVPQREMDRRKGDRTLPVRTPTMAGGLFSIDRDYFQEIGTYDAGMDIWGGENLEISFRIWQCGGTLEIVTCSHVGHVFRKATPYTFPGGTGQIINKNNRRLAEVWMDEFKNFFYIISPGVTKVDYGDISSRVGLRHKLQCKPFSWYLENIYPDSQIPRHYFSLGEIRNVETNQCLDNMARKENEKVGIFNCHGMGGNQVFSYTANKEIRTDDLCLDVSKLNGPVTMLKCHHLKGNQLWEYDPVKLTLQHVNSNQCLDKATEEDSQVPSIRDCNGSRSQQWLLRNVTLPEIF”: the “percentage of EdU-negative” value with hTERT-HMEC (setting [1]) is 4.8 ± 0.5%; in the data set on hTERT-HMEC (protein concentration 0.225 µM), 5.577 ± 0.015%; with MCF7 (setting [1]) it was 25.1 ± 1%; with MCF7 (protein concentration 0.225 µM), 23.6 ± 2.5%.

As to “MRALEGPGLSLLCLVLALPALLPVPAVRGVAETPTYPWRDAETGERLVCAQCPPGTFVQRPCRRDSPTTCGPCPPRHYTQFWNYLERCRYCNVLCGEREEEARACHATHNRACRCRTGFFAHAGFCLEHASCPPGAGVIAPGTPSQNTQCQPCPPGTFSASSSSSEQCQPHRNCTALGLALNVPGSSSHDTLCTSCTGFPLSTRVPGAEECERAVIDFVAFQDISIKRLQRLLQALEAPEGWGPTPRAGRAALQLKLRRRLTELLGAQDGALLVRLLQALRVARMPGLERSVRERFLPVH”, the “percentage of EdU-negative” value stood at 4.68 ± 0.12% in the data set on hTERT-HMEC (setting [2]), 8.46 ± 1.8% in the data set with hTERT-HMEC (protein concentration 0.085 µM), 22.9 ± 1.3% with MCF7 (setting [2]) and 27.9 ± 2.1% in the data set on MCF7 (protein concentration 0.085 µM).

With “MQPRRQRLPAPWSGPRGPRPTAPLLALLLLLAPVAAPAGSGDPDDPGQPQDAGVPRRLLQQAARAALHFFNFRSGSPSALRVLAEVQEGRAWINPKEGCKVHVVFSTERYNPESLLQEGEGRLGKCSARVFFKNQKPRPTINVTCTRLIEKKKRQQEDYLLYKQMKQLKNPLEIVSIPDNHGHIDPSLRLIWDLAFLGSSYVMWEMTTQVSHYYLAQLTSVRQWKTNDDTIDFDYTVLLHELSTQEIIPCRIHLVWYPGKPLKVKYHCQELQTPEEASGTEEGSAVVPTELSNF”, the “percentage of EdU-negative” value with hTERT-HMEC (setting [1]) came to 5.08 ± 0.6%; in the data set on hTERT-HMEC (protein concentration 0.225 µM), 4.8 ± 0.36%; in the data set with MCF7 (setting [1]), 24.2 ± 1.8%; in the data set on MCF7 (protein concentration 0.225 µM), 28 ± 0.37%.

On to “MRGLLVLSVLLGAVFGKEDFVGHQVLRISVADEAQVQKVKELEDLEHLQLDFWRGPAHPGSPIDVRVPFPSIQAVKIFLESHGISYETMIEDVQSLLDEEQEQMFAFRSRARSTDTFNYATYHTLEEIYDFLDLLVAENPHLVSKIQIGNTYEGRPIYVLKFSTGGSKRPAIWIDTGIHSREWVTQASGVWFAKKITQDYGQDAAFTAILDTLDIFLEIVTNPDGFAFTHSTNRMWRKTRSHTAGSLCIGVDPNRNWDAGFGLSGASSNPCSETYHGKFANSEVEVKSIVDFVKDHGNIKAFISIHSYSQLLMYPYGYKTEPVPDQDELDQLSKAAVTALASLYGTKFNYGSIIKAIYQASGSTIDWTYSQGIKYSFTFELRDTGRYGFLLPASQIIPTAKETWLALLTIMEHTLNHPY”, for which the “percentage of EdU-negative” value amounted to 5.61 ± 0.74% in the data set with hTERT-HMEC (setting [3]), 8.13 ± 1.2% in the data set with hTERT-HMEC (setting [4]), 25.44 ± 0.046% in the data set with MCF7 (setting [3]) and 27.3 ± 3% in the data set on MCF7 (setting [4]).

For “MLPWTALGLALSLRLALARSGAERGPPASAPRGDLMFLLDSSASVSHYEFSRVREFVGQLVAPLPLGTGALRASLVHVGSRPYTEFPFGQHSSGEAAQDAVRASAQRMGDTHTGLALVYAKEQLFAEASGARPGVPKVLVWVTDGGSSDPVGPPMQELKDLGVTVFIVSTGRGNFLELSAAASAPAEKHLHFVDVDDLHIIVQELRGSILDAMRPQQLHATEITSSGFRLAWPPLLTADSGYYVLELVPSAQPGAARRQQLPGNATDWIWAGLDPDTDYDVALVPESNVRLLRPQILRVRTRPGEAGPGASGPESGAGPAPTQLAALPAPEEAGPERIVISHARPRSLRVSWAPALGSAAALGYHVQFGPLRGGEAQRVEVPAGRNCTTLQGLAPGTAYLVTVTAAFRSGRESALSAKACTPDGPRPRPRPVPRAPTPGTASREP [Q6PCB0]”, the “percentage of EdU-negative” value was found to be 5.62 ± 0.91% in the data set with hTERT-HMEC (setting [5]), 5.75 ± 1.2% with hTERT-HMEC (protein concentration 0.205 µM), 26.5 ± 2.2% with MCF7 (setting [5]) and 27.6 ± 0.87% in the data set with MCF7 (protein concentration 0.205 µM).

As for “MSMSPTVIILACLGFFLDQSVWAHVGGQDKPFCSAWPSAVVPQGGHVTLRCHYRRGFNIFTLYKKDGVPVPELYNRIFWNSFLISPVTPAHAGTYRCRGFHPHSPTEWSAPSNPLVIMVTGLYEKPSLTARPGPTVRAGENVTLSCSSQSSFDIYHLSREGEAHELRLPAVPSINGTFQADFPLGPATHGETYRCFGSFHGSPYEWSDPSDPLPVSVTGNPSSSWPSPTEPSFKTGIARHLHAVIRYSVAIILFTILPFFLLHRWCSKKKDAAVMNQEPAGHRTVNREDSDEQDPQEVTYAQLDHCIFTQRKITGPSQRSKRPSTDTSVCIELPNAEPRALSPAHEHHSQALMGSSRETTALSQTQLASSNVPAAGI”, the “percentage of EdU-negative” value in the data set on hTERT-HMEC (setting [1]) turned out to be 5.29 ± 1.2%; with hTERT-HMEC (protein concentration 0.225 µM), 4.83 ± 0.51%; in the data set with MCF7 (setting [1]), 24.4 ± 3.2%; in the data set on MCF7 (protein concentration 0.225 µM), 25.68 ± 0.13%.
